How the values were obtained:
[1] = target: P. haemolytica A1 protease (Mannheimia haemolytica, UniProt P36175); type: biochemical; settings: FIG. 9; SDS-PAGE autoradiography
[2] = tested on: P. haemolytica glycoprotease; test: Cleavage of cell surface antigens of surface-125I-iodinated KG1a cells, immunoprecipitation and SDS-PAGE; type: cell-based
Source text: In our previous work, we have concentrated on the cleavage of human erythrocyte glycophorin A by the P. haemolytica glycoprotease Udoh et al. 1986. Univ. of Guelph; Abdullah et al. 1988. Proc. Canad. Fed. Biol. Socs.; Abdullah et al. 1990. Biochem. Soc. Trans. This substrate is well-characterized erythrocyte surface O-sialoglycoprotein and is readily available for biochemical analysis. However, it is clear that the physiological targets of this enzyme are not erthrocyte antigens but are probably O-sialoglycoproteins on the surfaces of leukocytes or endothelial cells. SDS-PAGE analysis of immunoprecipitations performed with specific monoclonal antibodies on lysates of surface-^125 I-iodinated KG1a cells, a primitive myeloid/T-lymphois stem cell line Koeffler et al. 1977. Science 200, have shown that the O-sialoglycoprotein cell surface antigens CD34 Civin et al. 1989. Leucocyte Typing IV, Oxford Univ. Press. CD43/leucosialin Killeen et al. 1987. EMBO J.; Pallant et al. 1989. PNAS, CD44/lyaluronic acid receptor Stamenkovic et al. 1989. Cell; Aruffo et al. 1990. Cell and CD45/leucocyte common antigen Thomas et al. 1989. Annu. REv. Immunol.; Pulido et al. 1989. J. Immunol. are all cleaved by the glycoprotease. Although the glycoprotease-sensitive structures contain some N-linked glycans they are all extensively glycosylated with O-linked carbohydrates. However, the N-linked glycoproteins CD18/11^a, 11^b, 11^c /leukocyte integrins Arnaout et al. 1990. Blood, CD71/transferrin receptor Shae et al. 1986. Cell, HLA class I Owen et al. 1980. J. Biol. Chem., and 8A3 antigens Sutherland et al. Blood (in press, Jan. 1991), which lack O-sialo-residues, were resistant to the action of the enzyme.

[3] = tested on: P. haemolytica glycoprotease; test: Removal of CD34 epitopes on KG1/KG1a cells (fluorescence microscopy, flow cytometry, western blotting); type: cell-based
Source text: Blood; Katz et al. 1985. Leuk. Res. which detects a sialic acid-dependent epitope on this glycoprotein Watt et al. 1987. Leukaemia; and Sutherland et al. 1988. Leukaemia. We have assessed the ability of this enzyme to remove CD34 epitopes recognized by all seven CD34 antibodies designated by the 4th Leucocyte Antigen Workshop Civin et al. 1989. Leukocyte Typing IV, Oxford Univ. Press. We have shown by fluorescence microscopy, quantitative flow cytometry and western blotting, that sialic acid-dependent epitopes, recognized by antibodies B1.3C5, MY10 Civin et al. 1984. J. Immunol. and 12.8 Andrews et la. 1986. […] Leukaemia and 188.24 Sutherland et al. Leukaemia. In contrast, the sialic acid-independent epitopes by 115.2 Andrew et al. 1986. Blood and TUK3 Civin et al. 1989. Leucocyte Typing IV, Oxford Univ. […] As previously for the cleavage of glycophorin, the enzyme requires the presence of sialyted residues on its substrate and the prior treatment of KGla cells with neuraminidase reduced the ability of the glycoprotease to cleave the ICH3 and 188.24 epitopes Sutherland et al. 1990. Blood (in press). The differential sensitivity of certain CD34 epitopes to cleavage with either neuraminidase and/or glycoprotease establishes 3 classes of epitopes:(Class 1) those like MY 10,B1.3C5 and 12.8 which are removed both by neuraminidase and by the glycoprotease;(Class II) those like ICH3 and 188.24 which are removed only by the glycoprotease; (Class III) those like TUK3 and 115.2

B1: glycophorin A: major sialoglycopeptide of the human erythrocyte membrane (protein, UniProt P02724 20-150, looked up)
Glycophorin-A: LSTTEVAMHTSTSSSVTKSYISSQTNDTHKRDTYAATPRAHEVSEISVRTVYPPEEETGERVQLAHHFSEPEITLIIFGVMAGVIGTILLISYGIRRLIKKSPSDVKPLPSPDTDVPLSSVEIENPETSDQ
In the case of B1, the “Hydrolysis of [125I]-glycophorin A forms by P. haemolytica A1 pH 4.5 fraction” value [1] is reported as “total hydrolysis”.

B2: CD45/leucocyte common antigen: O-sialoglycoprotein cell surface antigen, leukocyte common antigen (protein)
chain: QSPTPSPTGLTTAKMPSVPLSSDPLPTHTTAFSPASTFERENDFSETTTSLSPDNTSTQVSPDSLDNASAFNTTGVSSVQTPHLPTHADSQTPSAGTDTQTFSGSAANAKLNPTPGSNAISDVPGERSTASTFPTDPVSPLTTTLSLAHHSSAALPARTSNTTITANTSDAYLNASETTTLSPSGSAVISTTTIATTPSKPTCDEKYANITVDYLYNKETKLFTAKLNVNENVECGNNTCTNNEVHNLTECKNASVSISHNSCTAPDKTLILDVPPGVEKFQLHDCTQVEKADTTICLKWKNIETFTCDTQNITYRFQCGNMIFDNKEIKLENLEPEHEYKCDSEILYNNHKFTNASKIIKTDFGSPGEPQIIFCRSEAAHQGVITWNPPQRSFHNFTLCYIKETEKDCLNLDKNLIKYDLQNLKPYTKYVLSLHAYIIAKVQRNGSAAMCHFTTKSAPPSQVWNMTVSMTSDNSMHVKCRPPRDRNGPHERYHLEVEAGNTLVRNESHKNCDFRVKDLQYSTDYTFKAYFHNGDYPGEPFILHHSTSYNSKALIAFLAFLIIVTSIALLVVLYKIYDLHKKRSCNLDEQQELVERDDEKQLMNVEPIHADILLETYKRKIADEGRLFLAEFQSIPRVFSKFPIKEARKPFNQNKNRYVDILPYDYNRVELSEINGDAGSNYINASYIDGFKEPRKYIAAQGPRDETVDDFWRMIWEQKATVIVMVTRCEEGNRNKCAEYWPSMEEGTRAFGDVVVKINQHKRCPDYIIQKLNIVNKKEKATGREVTHIQFTSWPDHGVPEDPHLLLKLRRRVNAFSNFFSGPIVVHCSAGVGRTGTYIGIDAMLEGLEAENKVDVYGYVVKLRRQRCLMVQVEAQYILIHQALVEYNQFGETEVNLSELHPYLHNMKKRDPPSEPSPLEAEFQRLPSYRSWRTQHIGNQEENKSKNRNSNVIPYDYNRVPLKHELEMSKESEHDSDESSDDDSDSEEPSKYINASFIMSYWKPEVMIAAQGPLKETIGDFWQMIFQRKVKVIVMLTELKHGDQEICAQYWGEGKQTYGDIEVDLKDTDKSSTYTLRVFELRHSKRKDSRTVYQYQYTNWSVEQLPAEPKELISMIQVVKQKLPQKNSSEGNKHHKSTPLLIHCRDGSQQTGIFCALLNLLESAETEEVVDIFQVVKALRKARPGMVSTFEQYQFLYDVIASTYPAQNGQVKKNNHQEDKIEFDNEVDKVKQDANCVNPLGAPEKLPEAKEQAEGSEPTSGTEGPEHSVNGPASPALNQGS
modifications: O-sialoglycosylated
For B2, the “Cleavage of cell surface antigen by the glycoprotease” value (“Cleavage of cell surface antigen” for short) [2] was “cleaved”.

B3: CD43/leucosialin: O-sialoglycoprotein cell surface antigen, leukosialin/sialophorin (protein)
chain: STTAVQTPTSGEPLVSTSEPLSSKMYTTSITSDPKADSTGDQTSALPPSTSINEGSPLWTSIGASTGSPLPEPTTYQEVSIKMSSVPQETPHATSHPAVPITANSLGSHTVTGGTITTNSPETSSRTSGAPVTTAASSLETSRGTSGPPLTMATVSLETSKGTSGPPVTMATDSLETSTGTTGPPVTMTTGSLEPSSGASGPQVSSVKLSTMMSPTTSTNASTVPFRNPDENSRGMLPVAVLVALLAVIVLVALLLLWRRRQKRRTGALVLSRGGKRNGVVDAWAGPAQVPEEGAVTVTVGGSGGDKGSGFPDGEGSSRRPTLTTFFGRRKSRQGSLAMEELKSGSGPSLKGEEEPLVASEDGAVDAPAPDEPEGGDGAAP
modifications: O-sialoglycosylated
With B3 the “Cleavage of cell surface antigen” value [2] was “cleaved”.

B4: CD34: O-sialoglycoprotein cell surface antigen, primitive bone marrow stem cell antigen (protein, UniProt P28906 32-385, looked up)
Hematopoietic progenitor cell …: SLDNNGTATPELPTQGTFSNVSTNVSYQETTTPSTLGSTSLHPVSQHGNEATTNITETTVKFTSTSVITSVYGNTNSSVQSQTSVISTVFTTPANVSTPETTLKPSLSPGNVSDLSTTSTSLATSPTKPYTSSSPILSDIKAEIKCSGIREVKLTQGICLEQNKTSSCAEFKKDRGEGLARVLCGEEQADADAGAQVCSLLLAQSEVRPQCLLLVLANRTEISSKLQLMKKHQSDLKKLGILDFTEQDVASHQSYSQKTLIALVTSGALLAVLGITGYFLMNRRSWSPTGERLGEDPYYTENGGGQGYSSGPGTSPEAQGKASVNRGAQENGTGQATSRNGHSARQHVVADTEL
For B4, the “Cleavage of cell surface antigen” value [2] was “cleaved”, the “Removal of sialic acid-dependent epitopes recognized by antibodies B1.3C5, MY10 and 12.8” value [3] was “totally removed” and the “Removal of sialic acid-independent epitopes recognized by ICH3 and 188.24” value [3] was “totally removed”. For the same molecule, the “Sensitivity of sialic acid-independent epitopes recognized by 115.2 and TUK3” value [3] was “totally resistant” and the “Cleavage of CD34, loss of reactivity with anti-CD34 monoclonal antibody B1.3C5” value ([3]; KG1 cells) was “readily cleaved”.

From patent US5543312A, “Pastuerella haemolytica glycoprotease gene and the purified enzyme” (priority 1991, dated 1996)
